# The DeepSol protein solubility set
# Assay: soluble on expression in E. coli; label from the status in PepcDB or PDB records
row,Sequence,soluble on expression in E. coli
1,MRYCQFEGCSNTTEKGAYCSEHARKSRKKKKPINVYHHDNKSFYRTKEWQDVADFVYEREGGCCQRCGRFVFGRQAHRHHVIPIKKNEMLKLDPNNIRLLCPKCHVIEENEADEKKVFPSYFKKLEHHHHHH,soluble
2,MRYFKRRVGSGRVYMVMDNYSPHKTKGTLEVCCRKGIHPVFTPPYSPELNMAEAVFKSLKNYMSNKIFYTIEDVKNCIKQFFEENKYRFNLNAITYLGLDKIEV,soluble
3,MRYGEKEIKEFDVENMEIWPNDAKNDYIIKITLPEFMCCCPRSGYPDFATIYLEYMPDKFVVELKAIKLYINTFMYRNVSHEASINEIYNTLKDKLKPKWIKVVGDFNPRGNVHTVIECRSDMVVPK,not soluble
4,MRYHGGLLLGAFDDDGKIIGMSFGYPGFRNGKLYLYSHMAGVVENKKYSNVGYSLKMKQRDLAASMGYDLIAWTFDPFNPLNAYFNISKLGAITRTYIKNFYGVMNDGINRGMRTDRVVAEWWINLQIDRNCEIIDFLNDVDRYSEISTIHESSCLGFYVPPDISYFHKYPDLGSKLKDAAFEVFNALFSKGYAIVAYKRGKSNYFVFKRIENLGKRIFDPIVK,not soluble
5,MRYIRQLCCVSLLCLSGSAVAANVRLQVEGLSGQLEKNVRAQLSTIESDEVTPDRRFRARVDDAIREGLKALGYYQPTIEFDLRPPPKKGRQVLIAKVTPGVPVLIGGTDVVLRGGARTDKDYLKLLDTRPAIGTVLNQGDYENFKKSLTSIALRKGYFDSEFTKAQLGIALGLHKAFWDIDYNSGERYRFGHVTFEGSQIRDEYLQNLVPFKEGDEYESKDLAELNRRLSATGWFNSVVVAPQFDKARETKVLPLTGVVSPRTENTIETGVGYSTDVGPRVKATWKKPWMNSYGHSLTTSTSISAPEQTLDFSYKMPLLKNPLEQYYLVQGGFKRTDLNDTESDSTTLVASRYWDLSSGWQRAINLRWSLDHFTQGEITNTTMLFYPGVMISRTRSRGGLMPTWGDSQRYSIDYSNTAWGSDVDFSVFQAQNVWIRTLYDRHRFVTRGTLGWIETGDFDKVPPDLRFFAGGDRSIRGYKYKSIAPKYANGDLKGASKLITGSLEYQYNVTGKWWGAVFVDSGEAVSDIRRSDFKTGTGVGVRWESPVGPIKLDFAVPVADKDEHGLQFYIGLGPELLEHHHHHH,not soluble
6,MRYTDSRKLTPETDANHKTASPQPIRRISSQTLLGPDGKLIIDHDGQEYLLRKTQAGKLLLTK,soluble
7,MRYWKNSRIKMFEQEDEWISKTQMKKQMNDLQDLGMALTKLSNDTLKKIGLDADLYEAVTAYKKITSNGALKRQAQFIGRLMRDTDPAPIEAFLAKLRGDDAAHNAFLQRVEQARVRLLADDGALTQFMSDFPHADAGKLRTLIRNTKKEQEQNKPPKNFRALFQELKTVMENGDAEI,not soluble
8,MSAALVAQQVATLREQGFVVVRNFASPPVRQALRELALQHLAQTVDPVEYEADLKYPGAPSSRLAAGGQTVRRLLDAYGRDQRFRDWATQAAIGAFLRAYFQDTPVLSTVHHNCIMTKHPAFGSLTGWHQDIRYWSFSDDDLVSCWLALGDERADNGGLYFVPGSHTASFMPEQYDARKFFRDDLPQNQEWIGRAVCPELQAGDVVFFHCRTLHAARQNATDTVKLSLVHTYHPASCHPLPGTRSAGSPGVPLPLEHHHHHH,soluble
9,MSAASTTSTPAAAAVAPQQPESLYRVVQTLGEGAFGEVLLIVNTKNPEVAAAMKKINIANKSKDFIDNIRKEYLLQKRVSAVGHDNVIRMIGMRNDPQFYYLFLEYADGGELFDKIEPDCGMSPVFAQFYFKQLICGLKFIHDNDVVHRDIKPENLLLTGTHVLKISDFGMATLYRNKGEERLLDLSCGTIPYAAPELCAGKKYRGPPVDVWSSGIVLIAMLTGELPWDRASDASQSYMGWISNTSLDERPWKKIDVRALCMLRKIVTDKTDKRATIEQIQADPWYQHNFGQVETPNGRPLKRARNNDENITCTQQAECSAKRRHLETPNEKSTLAERQNASFSQPTKTEDLLLTQHIDMSQTNSVRKKPSEIGGFLAKISNFSVNLLQRMVCRMTRFCVVTDIRSTYQKVARASEHAGFGVRETDDYRLLVTWREVSMMVSLYTMGDIPDKPRVMVDFRRSRGDGIQFKKMFMDVRNRMHEWICTDGNNWLANLGYVPRNPQIVNGGGVNVEHSASSINVDV,not soluble
10,MSAATYRKLTSANLLDPVRCRLLISRNRCRVTGVKVPNPLKKVSNFFWRYRAPQAAPGHANPAYFPEADNFED,not soluble
11,MSAETYVMEIDGGPGDLHCMKCLKICNYLKDSYCCKKTKNMTLPQKKAESAFLMICLQRNTIELMVTALLANKKIIDSKGNCAFCRNKKQHEEEKWCAGRTKLQLFLHRIDKDELKVEEYLEKYLEIKTRNRMEQLDIVQARIVREMKAVAIAQGKSEEEVEHILAKQGRKARRMQRSEYKHAEEDNKGVRQRLAAKLVAKKSEIIERFCLAQRTVFVKADCPNVYGRTTTHISYLLE,not soluble
12,MSAGQRKEQKLIPVERRQIILEMVAEKGIVSIAELTDRINVSHMTIRRDLQKLEQQGAVVLVSGGVQSPGRVAHEPSHQVKTALAMTQKAAIGKLAASLVLPGSCIYLDAGTTTLAIAQHLIHMESLTVVTNDFVIANYLLDNSNCTIIHTGGAVCRENRSCVGEAAATMLCSLMIDQAFISASSWSVRGISTPAEDKVTVKRAIASASRQRVLVCDATKYGQVATWLALPLSEFDQIITDDGLPESASRALAKQDLSLLVAKNELEHHHHHH,soluble
13,MSAKREFSHITLASTPFKKRIDQNSLKTDSDIEKDTNIAHKCAERFNYNTNLHRKVTLSDRFELAALGYEMKAKPRTIIEKHNDCDEFHFIYRKEKKNDYGTGSPLSAGLSLSNPLPAGRGFLSPAIQNTSNQFTFSGSPRITPQKHTPVSANHKPARSIFDDIPSNIA,not soluble
14,MSALEETQSLCKQVDDICNNGMESVEQCNKLLDQLSKIPMSIEIIQKTNIGIKVNMMRKKVTDDAVAKRAKNIIKDWKNVVDGKSKSQDDGGAPPAKKHRKESVEEAKPEKKKIEAPYKRPEPSSRPEIVAQFASASFPPKHLENDETRLKSAQLLLSALRFGDMPQGTLDPEELAVQIEEKLYSVHRDTNKSYSAAVRSRIFNLRDKKNLALRENVLTGVVRAEKFATMTSEEMASAEIREMRDKFTKEAILEHQMSVQQGTPSDMFKCGKCGKKNCTYTQLQTRSSDEPMTTFVFCLECGNRWKFC,soluble
15,MSAPDLFVAHFREAVPYIRQMRGKTLVAGIDDRLLEGDTLNKLAADIGLLSQLGIRLVLIHGARHFLDRHAAAQGRTPHYCRGLRVTDETSLEQAQQFAGTVRSRFEAALCGSVSGFARAPSVPLVSGNFLTARPIGVIDGTDMEYAGVIRKTDTAALRFQLDAGNIVWLPPLGHSYSGKTFYLDMLQTAASAAVSLQAEKLVYLTLSDGISRPDGTLAETLSAQEAQSLAEHAGGETRRLISSAVAALEGGVHRVQILNGAADGSLLQELFTRNGIGTSIAKEAFVSIRQAHSGDIPHIAALIRPLEEQGILLHRSREYLENHISEFSILEHDGNLYGCAALKTFAEADCGEIACLAVSPQAQDGGYGERLLAHIIDKARGIGISRLFALSTNTGEWFAERGFQTASEDELPETRRKDYRSNGRNSHILVRRLHR,not soluble
16,MSAPINKVLIADDIEQECVDILKQNGIEVTVKTKQTKDELLVTLPQHDAVIVRSATKITAELLAASAGKLKLVGRAGTGVDNIDVPAASANKILVMNTPQANSRSAAELTCTLILSLSRHVPQAAASMKAGKWARKDFMGEEVYGRTLAVLGLGRIGSEVAVRLQAFGMKVIGFDPMVTKEQAEAKNIELLSLEQIWPQADYITVHVPLIKQTENLINKETLAKCKKGVRIINVARGGIVNEVDLVESLNAGHAKGAAFDVFEQEPPTFRELIDHPLVIATPHLGASTIDAQLRVASEIADNIVQYNKGTMLGVLNAREVLN,not soluble
17,MSAPTMRSTSILTEHLGYPPISLVDDIINAVNEIMYKCTAAMEKYLLSKSKIGEEDYGEEIKSGVAKLESLLENSVDKNFDKLELYVLRNVLRIPEEYLDANVFRLENQKDLVIVDENELKKSEEKLREKVNDVELAFKKNEMLLKRVTKVKRLLFTIRGFKQKLNELLKCKDDVQLQKILESLKPIDDTMTLLTDSLRKLYVDSESTSSTEEVEALLQRLKTNGKQNNKDFRTRYIDIRTNNVLRKLGLLGDKEDEKQSAKPDARTQAGDIVSIDIEEPQLDLLDDVL,soluble
18,MSAQKPGLHPRNRHQHRYDLAALCQTTPELTSFLIRTPAGEQSVDFANPQAVKALNKALLAHFYAVTHWDIPPGFLCPPVPGRADYIHHLADLLGETTGSIPAQATILDVGVGANCIYPLIGVHEYGWRFTGSEVSDAAMSSAQAIIQANTGLSRAIRLRRQKDPAAIFTGIIHKNEFYDATLCNPPFHDSAAAARAGSERKRRNLGQNKDDALNFGGQQQELWCEGGEVAFIKKMIAESQTFRRQVLWFTTLVSRGENLPPLYRALTEAGAVKVVKKEMAQGQKQSRFIAWTFMDDDQRRRFITRKRLEHHHHHH,soluble
19,MSASIRDAGVADLPGILAIYNDAVGNTTAIWNETPVDLANRQAWFDARARQGYPILVASDAAGEVLGYASYGDWRPFEGFRGTVEHSVYVRDDQRGKGLGVQLLQALIERARAQGLHVMVAAIESGNAASIGLHRRLGFEISGQMPQVGQKFGRWLDLTFMQLNLDPTRSAP,soluble
20,MSASLRQSELTIRACILYEALGKNPIQLSYYNFCTRVGNGVMGFSDFEFWYDRFSNGNHDLDYDRSVNQVPKSLPEMPKSEKTEISEIGTQVDIVELLNLMKVSQSVAQKRKVVLDSLVVQFYEGESCSRLIFNDRYIIKYEKKDQGCTVSYSDNRASSDSRKKEINVTDEDYVELCIKDLKLLMENRMVHLKTFRFAIIAVATKEFREKCMKRVEEALKTAKSLTSRTVETTGGYLLELAQLMAIFPAKNVEEIRFTGDGTIGSEQLVSLEQWKNARKFDGMRDLNVPIEHFLHFETFIVYLSVFTEDDAVKLRDMIDRSAHFCYARLHFKSMNIRTLMGVFDVYNTEHNIVYQTPDQRYFNVRFYSNELQITKSAILNFQIE,not soluble
21,MSAVGEFPGSLGAKVFRLNGGLPGAKVGKNTGTSVKFGESSTQALIRAAYRQVFGRDLYEGQRLSVAEIQLENGDISVREFIKRLAKSELFLKLYWAPHYVCKAIEYMHRRLLGRPTYGRQEMNQYFDIASKQGFYAVVEAMIDSKEYSDAFGEDTVPYERYLEHHHHHH,soluble
22,MSCGSNRGNEMKDKYDVLVIGAGPAGSIAAKTAAEKGLDVLLIEKRQEIGDPVRCAEGVNKECLKKHVEIDKRWICADLKGSCIFSPDGTKIEMAEEISGGEVGYVLERKVFDRALAEHAATAGAEVRVKTRATGLIIEDDFVKGARLMHLGKEYEVRASIVIGADGVESKVGRWAGIDTALKPVDVETCAQYLIAGADINQEYCEFYIGNEMAPGGYVWVFPKGGGKANVGIGILGSKMGKFKPRPVDYLNDFVQKKFPDARIVEMVFGGVPVSGSIEKTSVNGLMLVGDAARQSDPITGGGILNAMDAGKLAGEAAYEAISAGDVSVVKLEEVYEKKWRDTVGHDIDMSLIVKNCFINLTDDDLDSLAHSLKDVKFERMSLLDLLQALFKANKKLLWDLRVLFKDAAKEVIKNKTLEHHHHHH,soluble
23,MSDDGGFLSSQSSRELTEDDHEKLAKQTSISDFKRNKLEIDARKNWDKFYHRNKNNFFKDRNWSAEDLKMMCPDIDFEKEISYLEAGCGVGNMLFPLVAEIPNLKLFAFDFSDNAVKLLEERAKELELSVATSVVDLSIPSVSSPFEEQVDLATLIFVLSAIHPEKHQISAENVRKMIKIGGSVVVRDYGINDHAMIRFGREARISDRFYVRQDGTRAYYFDLNELSEVFEKSGFRCVRKEYLHRMTVNHQKGLKAPRIFVQARFIRES,not soluble
